Measurements as given in the DeepSol protein solubility set.

assay: soluble on expression in E. coli; label from the status in PepcDB or PDB records

Sequence	soluble on expression in E. coli
MLFSMESILSSTKPKLEPPPKLEPEVTINEQVVDLPRSNTRLSEPSTSASVLEHDLKFGESRKRSRSLGDEPTEDEDGVPVRKANKRNHSTSSAADSSSDDAKDDDDDDDSTSRKSMSGHRKSSHAKPPYSYIALIAMSILNSPEKKLTLSEICEFIINKFEYYKEKFPAWQNSIRHNLSLNDCFVKVARGPGNPGKGNYWALDPNCEDMFDNGSFLRRRKRYKKNSDTYHEMMSHHPMPFPPFLPQGMPFPPRMMHPMANIPMLGHPMNPRAVPNMPAFFIPQNIDSQKLLSMMASRIMPMDAPVSSGQKRTSSSSSPNENGSSAVSDKLSA	soluble
MLGLRRKVRIETERMTLRLPAHSDWRDWAALRAESATFLTPWEPVWSSDHLSRKAFTNRVYWAARAESQGTALPVLLIRREDQALLGAITLDNIRRGPAQSGTLGYWIGRPHARQGYMREAIQGIVHHAFTAMDVSRIEAACLPENAASRGVLEKCGFKYEGVAQSYLQIAGRWRNHVLYANLRGDRRGRTDAG	not soluble
MLGVLKKVFDPNKRQLARLEKIADQVDALGPEMARLSDEQLRQKTEEFKARYQQGESLDDLLVEAFAVVREGAKRVLGLYPYKVQIMGGVVLHEGDIAEMKTGEGKTLTATMPVYLNALTGRGVHVVTVNEYLATRDATEMGKLYEFLGMTVGLNLSGMSREEKQAAYNADITYGTNNEFGFDYLRDNMVLYKEHIVQRPLYYAIIDEVDSILIDEARTPLIISGTAQKSTKLYVQANAFVRTLRKDVDYTYDEKTKSVQLTEEGINKAERAFGIDNLFDLKHVTLNHHIQLALRAHVTMQRDVDYVVQDGKVIIVDPFTGRLMHGRRYSDGLHQAIEAKEGLEIQNESMTLATITFQNYFRMYEKLAGMTGTAKTEEEEFRNIYNMRVVVIPTNRPVIREDRPDLIYRTMEGKFRAVVEDIAARHAKGQPVLVGTVAIETSEMLSEMLKKRGIPHNVLNAKNHAKEAEIIAQAGQKGAVTIATNMAGRGTDIKLGEGVKELGGLAVIGTERHESRRIDNQLRGRSGRQGDPGVSQFYLSLEDELMRRFGSESLMAMMDRLGMDDSQPIQSKMVTKAVESAQKRVEGNNFDARKQLLQYDDVLREQREIIYRQRYEVLDSDNLRGIIEKMIQSVIERVVNAHTPKEEVPEEWNLKGLVEYLNAHLLPEGDVTEADLRGKEPEEMIELIWAKVKARYDEKEAQIPPEQMREFERVVVLRAVDMKWMNHIDAMEQLRQGIHLRAYGQVDPLREYQMEGYAMFEEMIAAIEEEVATYIMKAEIHHNLERQEVAKGEAVHPKEDGEEPKRKPVRKAVRVGRNDPCPCGSGKKYKHCCGRTV	not soluble
MLHITLHQLKIFESVARLLNFTHAAEELHLTQPAVSIQIKRLEEMVALPLFEQIGKRVHLTEAGKELFHYSRGITRQLADMELALDELKGLERGKLSISVVSTANYFVPNLLAKFCQRYPGITISLHVSNRENVLKQLSDNIMDLAIMGQPPEGLDITSESFMENPLVIIAPPEHPLCGQKQIPVKRLEQEIFLVREPGSGTRNAMERFFAHEKISIQKGMEADTAEAIKQAIQAGMGLGIMSLHTIRLELEAGRLKILDIQGLPIMRYWNVVHQKNKRLSNISSVFKQFLLNEAADLVALEYPHRNTT	not soluble
MLIIETLPLLRQQIRRLRMEGKRVALVPTMGNLHDGHMKLVDEAKARADVVVVSIFVNPMQFDRPEDLARYPRTLQEDCEKLNKRKVDLVFAPSVKEIYPNGTETHTYVDVPGLSTMLEGASRPGHFRGVSTIVSKLFNLVQPDIACFGEKDFQQLALIRKMVADMGFDIEIVGVPIMRAKDGLALSSRNGYLTAEQRKIAPGLYKVLSSIADKLQAGERDLDEIITIAGQELNEKGFRADDIQIRDADTLLEVSETSKRAVILVAAWLGDARLIDNKMVELA	soluble
MLIINKLNHAQKQLEKLNFIPQQADKVDFLASSSEFKARILQLINTAKSRIYLTALYFEQDEAGQQILAALYQAKLANPALDIQILVDWHRAQRGRIGEKTTSSNADWYANMKQQYNLPPEQEIAVWGVPINGREIFGVLHLKGFIFDDTILYSGASINNVYLQQFDRYRYDRYHTLENKVLADSLVTFLQQHILTDHAVNRLDNMQRPVTANIRPAIKAFRKQLTKQQYQFAEQPESNGLMLSPIAGLGRKNQLNKTIEALFYKTQNKLTICTPYFNFPRSLITRIKWLLENGKQVEIIAGDKKANDFYTPPDKKFTMAAALPYLYEKNLRAFAKRFDSYIQNKLLTIRLWKDGENTYHLKGLWVDNRYILLTGNNLNPRAWGLDAENGILLDDPKAELAEKAALELTQIRTFTQELSHYSDLETIKDYPLEVQKLLKKFGRVKLDKIIKMLLLEHHHHHH	not soluble
MLIKVKTLTGKEIELDIEPNDRVERIKEKVEEKEGIPPPQQRLIFAGKQMNDDKTAADYKVLGGSVLHLVLALRGGF	not soluble
MLIPGAHYRGDVPMYPASVVKLFYLVACHEWLHSGMLQPDAELERAMRDMIVDSSNDATSLVVDMLTGTTSGPVLPPEPFRTWQYQRNIVNRYFQSLGWPELTQINVNQKTWCEGPYGREQEFVGRDRQNANRLTTNATAKLIHSIVGGVAVSASASQGMMELMERSLDPELLAQDPENQVQGFLGEGLPPGAKLWSKAGLTSWVRHDAAYIELPDRCPYTLVVFMENSTASKNTEVLPFISRQIASGILEHHHHHH	not soluble
MLIREIEKKDNEQVETLIRTCLIEFGADKPGCAWTDPDLGRFYEIYQDKKSKYWVVEEEGKIIAGCGIGPLNGAENVCELQKMYSYKEARGTGIAKDLLGLALDFAKKYYDKCYLETFSNMTAANKFYVKNGFKKLEKPLIETDHYACDVWYIKEL	not soluble
MLIWSPSVRIAANIRTDNPNSLKRNANMPQLTLDKTDIKILQVLQENGRLTNVELSERVALSPSPCLRRLKQLEDAGIVRQYAALLSPESVNLGLQAFIRVSIRKAKDAREDFAASVRKWPEVLSCFALTGETDYLLQAFFTDMNAFSHFVLDTLLSHHGVQDAQSSFVLKEIKHTTSLPLNHLLKE	not soluble
MLKGHLHSVESLGTVDGPGLRYILFTQGCLLRCLYCHNPDTWKISEPSREVTVDEMVNEILPYKPYFDASGGGVTVSGGEPLLQMPFLEKLFAELKENGVHTCLDTSAGCANDTKAFQRHFEELQKHTDLILLDIKHIDNDKHIRLTGKPNTHILNFARKLSDMKQPVWIRHVLVPGYSDDKDDLIKLGEFINSLDNVEKFEILPYHQLGVHKWKTLGIAYELEDVEAPDDEAVKAAYRYVNFKGKIPVEL	not soluble
MLKIIPGATGYFNKTLNSNQFDNEDAIKDKLDNRGSIKGKLNNIYGKSIDYAALRHRDIIIAKIDLFIQRITHNLWHARKKMCFLEHHHHHH	not soluble
MLKKILLSLVVFYQRFISPLTPPTCRFYPTCSQYTREAIEYHGALKGLYLGVRRILKCHPLHKGGFDPVPLKKDKNSKTTHHHLEHHHHHH	not soluble
MLKQVEIFTDGSCLGNPGPGGYGAILRYRGREKTFSAGYTRTTNNRMELMAAIVALEALKEHCEVILSTDSQYVRQGITQWIHNWKKRGWKTADKKPVKNVDLWQRLDAALGQHQIKWEWVKGHAGHPENERCNELARAAAMNPTLEDTGYQVEV	soluble
MLKRLISIPTVAPQGDHYGEAAELLARELESLGFETVVERVPSEYQREKCRHASDNPRFIVYGRRGEGPALHFNGHYDVVPGGPGWSVTEPFKPVVKDGKLYGRGAIDMKGGIAAALGAFKALHLSGAWPQGLRVEAAFVPDEEIGGECGTGYLVNGMGVTPEYVVLPEPSGLEKPWHGHRGILWMKVRVKGRTAHASTPWHGRNAFLLASAIALDLQQALASMYAGRRSRHRIEPEESAKPTVSLGGEAGVTGGGKTNQVPGEFYFTVDRRLIPEETVSQARDELLGVLTWLSVKHGAEVEAEEVISAEPAINEPGELYEALREAASQSGRSIGEPVVCPGGLDMWYYTVKGSKALAYGPRGELAHAPDEHIDLGELRFLVETFARLPITLAVALQRRT	soluble
MLKSVLGKFSVGDKMIEVTFLGAGGGRFVTITQVRSTGGFFIKASKNIFVDPGPGALIRMIRYKLDPRKIDVLFISHRHTDHCNDAEVIVEGMTYGVTKRRGILIGSRSVVHGDDAHTPALSKYHLEALEEVHAPNPGDRFKLGNEDMVITPSVHSDPTTIGFRLKTNFGDISYIADTEYFEGLEEWHDGTRVLIASVTRPRDMKIPYHLSTDDVVYMLKKMKEKPEVLIMTHLGMKMHFAGPYKEAEYIQNVTGVKTYVAKEGFRITIGKEIHVKTLRPVRFVLEHHHHHH	soluble
